In patent US20120301469A1 (Ablynx, published 2012):

What was measured:
[1] = biological target: T1, protein F of hRSV strain B-1 (on RSV B-1-infected Hep2 cells and on virus) (human respiratory syncytial virus, …, UniProt P13843 26-574); test: cell ELISA on RSV B-1-infected Hep2 cells, periplasmic extract 1:200
[2] = biological target: T2, hRSV FTM-NN (membrane anchorless form of the Long fusion protein, 70 kDa) (human respiratory syncytial virus, …, UniProt P12568 26-524); test: SPR (Biacore), FTM-NN amine-coupled on CM5 chip, 1:1 Langmuir fit
T2 construct: also called FTM-NN (Long); hRSV FTM-protein

[3] = biological target: T2, hRSV FTM-NN (membrane anchorless form …); test: ELISA on immobilized FTM-NN, periplasmic extract 1:10
[4] = biological target: T2, hRSV FTM-NN (membrane anchorless form …); test: competition ELISA on FTM-NN, competitor Synagis Mab, purified Nanobody
[5] = biological target: T1, protein F of hRSV strain B-1 (on RSV …); test: cell-based or functional assay
[6] = biological target: T3, protein F of hRSV strain Long, on virus (inactivated hRSV Long, Hytest #8RSV79; RSV Long LM-2, ATCC VR-26) (human respiratory syncytial virus, …, UniProt P12568 26-574); test: cell-based or functional assay
[7] = biological target: T1, protein F of hRSV strain B-1 (on RSV …); test: cell ELISA on RSV B-1-infected Hep2 cells, periplasmic extract 1:50
[8] = biological target: T1, protein F of hRSV strain B-1 (on RSV …); test: cell-based or functional assay; remark: listed apart in the source
[9] = biological target: T3, protein F of hRSV strain Long, on virus …; test: cell-based or functional assay; remark: listed apart in the source

Row | Binder | Binding Hep2-B-1 (% control) 1:200 PE [1] | Kd [2] | koff [2] | kon [2] | Binding Long 1:10 PE (Fold blanc) [3] | IC50 [4] | micro-neutralization of RSV B-1 [5] | RSV micro-neutralization on Long, IC50 [6] | Binding Hep2-B-1 (% control) 1:50 PE [7] | Neutralization B-1 IC50 [8] | Neutralization Long IC50 [9]
1 | Nanobody 7B2 (VHH, also called PMP7B2; PRSV7B2) VHH: EVQLVESGGGLVQAGDSLRLSCAASGRTFSSYAMGWFRQAPGKEREFVAAISWSDGSTYYADSVKGRFTISRDNAKNTVYLQMNSLKPEDTAVYYCAADLTSTNPGSYIYIWAYDYWGQGTQVTVSS | 41 % control | 1.5 nM | 0.00049 s⁻¹ | 340000 M⁻¹ s⁻¹ | 4.7 fold blanc | 1.93 nM | > 10 µM | 88 nM | 61 % control | > 10000 nM | 108 nM
2 | Nanobody 1G3 (VHH, also called PMP1G3; PRSV1G3) VHH: EVQLVESGGGLVQAGGSLRLSCEASGRTYSRYGMGWFRQAPGKEREFVAAVSRLSGPRTVYADSVKGRFTISRDNAENTVYLQMNSLKPEDTAVYTCAAELTNRNSGAYYYAWAYDYWGQGTQVTVSS | 45 % control |  |  |  | 3.4 fold blanc | 72.5 nM | > 10 µM |  | 52 % control | > 10000 nM | 413 nM
